Where two headings read alike, the source gives them in different places.
Legend:
CD8+ and CD4+ T cells = assay: Intra-tumor T cell activation marker analysis by flow cytometry; type: in vivo, mice; settings: UAP1 KO groups, not in wt; 32 days post tumor injection; FIGS. 12A and 12B
Procedure: FIGS. 12A and 12B. 32 days post tumor injection, scouts were taken for intra-tumor T cell activation marker analysis. […] Data were obtained using flow cytometry. P values were calculated using two-tailed paired Student t-test. *P<0.05, **P<0.01
To confirm that the observed effect was due to the involvement of the endogenous mouse immune system, the experiment was repeated in NSG immunodeficient mice.

MKN45 tumors = assay: In vivo cancer model, MKN45 wt or UAP1 KO tumors in stem cell humanized NSG mice
Procedure: FIGS. 8A, 8B, 8C, 8D, and 8E. Deletion of UAP1 sensitizes MKN45 tumors to immunotherapy. FIG. 8A: Tumor growth curves of MKN45 wt and UAP1 KO cell in stem cell humanized NSG mice (huNSG). Animals were dosed either with vehicle control, 0.2 mg/kg or 0.4 mg/kg CEA-TCB. Time point of first dosing at day 15 as indicated. Tumor volume was measured with a caliper. Mice per group (n=10). FIG. 8B: Tumor volume ratio of TCB therapy groups and vehicle control groups for every time point after the first TCB treatment. FIG. 8C: Tumor growth curves for individual mice. Two-way-ANOVA statistical analysis was done with Graphpad Prism software. FIG. 8D and FIG. 8E show the measured individual tumor volumes over time within the treatment groups corresponding to the average values shown in FIGS. 8A and FIG. 8B.
Immunocompetent C57BL/6J and NOD.Cg-PrkdcscidIL-2rgtm1Wjl/SzJ (NSG) mice were obtained from Charles River Laboratories. All animal studies were performed under local Swiss government ethical approval and regulations (license ZH183/2020) according to international FELASA and national GV-Solas and TierSchG guidelines, respectively. […]
B16F10 and MKN45 wtl and UAP1 KO cells were trypsinized, washed and resuspended using a 1:1 mixture of tissue culture medium and Matrigel in a total volume of 100 μl. […] Tumors were measured twice weekly and tumor volume (mm3) was determined using the formula 0.5×length×width2. […]

A549 = assay: T cell-mediated killing assay, A549 wt vs UAP1 KO; type: cell-based, human; settings: FIG. 3C
Procedure: FIGS. 3A, 3B, 3C and 3D. Tumor intrinsic UAP1 regulates TCB-mediated cytotoxicity in vitro. T cell-mediated killing assay. UAP1 knockout cells and wt cells for FIG. 3A MKN45 with CEA-TCB, FIG. 3B MKN45 with EpCAM-TCB, FIG. 3C A549 with CEA-TCB and FIG. 3D B16F10 with Tyrp1-TCB were used and measured was the cell count of tumor cells over time in an incucyte. Graphs show mean±SEM. P values were calculated using two-tailed paired Student t-test. *P<0.05, **P<0.01
25000 MKN45-nuclight red (NLR), 20000 A549-hCEA and 10000 B16F10-NLR tumor cells (wt or UAP1 ko) were seeded in one well of a 96 well-plate. Afterwards TCBs or siinfekl were given at the indicated concentrations. […] For MKN45-NLR and B16F10-NLR, T cell-mediated killing was calculated based on the red fluorescent signal coming from the tumor cells. All values were first transformed to fold-change to time 0, and % specific lysis was calculated as follows: […]
For A549-hCEA, the cytotox-green reagent (sartorius) was added to the co-culture at 1:16000 dilution and T-cell mediated killing was assesses by measuring green fluorescent count in each well. All values were first transformed to fold-change to time 0, and then % normalized green signal was calculated as follows: [(Green fluorescent counts TCB/Green fluorescent counts control TCB)×100]. […] T-cell mediated killing was measured as above. […]

[1] = test system: CEA expressing metastatic CRCs; settings: cited from earlier work

B1: cibisatamab (antibody, chains of the INN, looked up, V domains shown)
VH: QVQLVQSGAEVKKPGASVKVSCKASGYTFTEFGMNWVRQAPGQGLEWMGWINTKTGEATYVEEFKGRVTFTTDTSTSTAYMELRSLRSDDTAVYYCARWDFAYYVEAMDYWGQGTTVTVSS
VL: DIQMTQSPSSLSASVGDRVTITCKASAAVGTYVAWYQQKPGKAPKLLIYSASYRKRGVPSRFSGSGSGTDFTLTISSLQPEDFATYYCHQYYTYPLFTFGQGTKLEIK
VH2: QVQLVQSGAEVKKPGASVKVSCKASGYTFTEFGMNWVRQAPGQGLEWMGWINTKTGEATYVEEFKGRVTFTTDTSTSTAYMELRSLRSDDTAVYYCARWDFAYYVEAMDYWGQGTTVTVSS
VL2: QAVVTQEPSLTVSPGGTVTLTCGSSTGAVTTSNYANWVQEKPGQAFRGLIGGTNKRAPGTPARFSGSLLGGKAALTLSGAQPEDEAEYYCALWYSNLWVFGGGTKLTVL
- expression of the activation/exhaustion marker (Tim3) in intra-tumor T cells (CD8+ and CD4+ T cells): increased expression
- tumor response (MKN45 tumors; combination of UAP1 gene knockout and CEA TCB): complete tumor regression
- tumor response (MKN45 tumors; mice treated with CEA-TCB only): incomplete tumor growth control
- T cell killing of UAP1 KO cells compared to wt cells (A549): more efficiently killed
- patients with radiological shrinkage ([1]; in combination with PD-L1-inhibiting antibodies, 5/10 patients): 50%
- patients with radiological shrinkage ([1]; monotherapy, 4/36 patients, failed at least two prior chemotherapy regimens): 11%

Source: patent publication US20260102420A1, “CANCER IMMUNOTHERAPY” (Hoffmann-La Roche Inc., priority 2022, published 2026)
